Key:
[1] = target: NrnC from Agrobacterium tumefaciens (Agrobacterium tumefaciens str. C58); assay: SEC; Superdex 200, 25 mM Tris-HCl pH 8.0, 100 mM NaCl; calibrated with Ec_RND, Tle1, conalbumin and aldolase; self-association, octamer
[2] = target: NrnC from Agrobacterium tumefaciens (Agrobacterium tumefaciens str. C58); assay: crystal structure; apo and Mn2+-soaked crystals, space group I422, two protomers in the asymmetric unit; octamer from crystal packing, interfaces analysed with PISA
[3] = target: NrnC from Agrobacterium tumefaciens (Agrobacterium tumefaciens str. C58); assay: AUC; sedimentation velocity, 1 mg/mL At_NrnC in 25 mM Tris-HCl pH 8.0, 100 mM NaCl, without or with 5 mM MnCl2, 60,000 rpm, 20°C, Sedfit; self-association, octamer

Measured: stoichiometry N

NrnC from Agrobacterium tumefaciens (enzyme)
8: all assays above

Reference: paper PMC6330322
